The values below come from paper PMC9241723.

The series concerns the target T1, MaNCP1-N (N-terminal C2H2 zinc finger cluster of MaNCP1) (Metarhizium acridum (CQMa102)) (UniProt E9E378).
T1 sequence: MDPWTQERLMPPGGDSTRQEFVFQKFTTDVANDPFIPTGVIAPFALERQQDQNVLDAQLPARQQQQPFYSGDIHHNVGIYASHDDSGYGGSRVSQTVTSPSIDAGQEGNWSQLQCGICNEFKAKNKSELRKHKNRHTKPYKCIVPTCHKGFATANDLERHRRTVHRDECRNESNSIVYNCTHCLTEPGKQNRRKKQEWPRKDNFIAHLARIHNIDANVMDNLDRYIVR
Kind of series: EMSA. The note with it: Chemiluminescent EMSA kit (Beyotime), biotin-labeled probe; buffer, salt, pH and temperature not stated. Background: Mobility shift assays separate free from complexed probe on a gel.

Take “AAAGATCAATAGGAGCTCAGACGACGAGATCGGATGGTGGGGTTCCGGGCAGGCGCAGGCGCGGCGGAAGTCGGCTAGCAGGAGCAACCCAATTGATAAGAGCTCAAGTG (double strand) [MaNmrA promoter probe]”: the binding entry is “binds”.
